Reference: publication PMC6744478

Key:
[1] = target: R7BPΔNC (construct R7BPΔNC-TEV-TS) (human) (UniProt Q6MZT1); assay: SPR; OpenSPR (Nicoya), Streptavidin sensor chip; tagged R7BP variant as ligand, purified R7-RGS/Gβ5 duplex as analyte at 3–5 concentrations; PBS pH 7.4, 0.005% Tween20; 25 µL per minute; 1:1-binding model; two independent experiments
[2] = target: RGS7/TS-Gβ5 duplex (human) (UniProt P49802); assay: pull-down; Expi293 cells co-transfected with RGS7, TS-Gβ5, R7BP-HIS and either WDR61 (sample A) or R7BPΔNC (sample B); lysate on MagStrep type3 XT beads, 4 °C, one hour; Western blot with anti-Gβ5 and anti-R7BP, bands quantified
RGS7/TS-Gβ5 duplex (human), sequence (P49802 whole entry, chain 1 of 2): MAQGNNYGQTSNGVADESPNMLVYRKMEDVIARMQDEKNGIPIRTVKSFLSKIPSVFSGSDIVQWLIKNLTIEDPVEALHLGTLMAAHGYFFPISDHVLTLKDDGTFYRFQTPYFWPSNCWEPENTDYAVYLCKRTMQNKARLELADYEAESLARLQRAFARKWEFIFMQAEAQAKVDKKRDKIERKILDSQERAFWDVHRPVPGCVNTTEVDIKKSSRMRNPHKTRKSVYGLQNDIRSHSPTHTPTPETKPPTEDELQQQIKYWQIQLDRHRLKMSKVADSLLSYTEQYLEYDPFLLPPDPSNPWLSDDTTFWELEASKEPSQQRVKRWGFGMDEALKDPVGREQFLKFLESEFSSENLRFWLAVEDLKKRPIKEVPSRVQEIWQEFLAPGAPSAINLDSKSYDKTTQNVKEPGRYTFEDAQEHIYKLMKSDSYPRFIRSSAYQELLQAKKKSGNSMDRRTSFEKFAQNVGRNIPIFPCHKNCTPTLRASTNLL
RGS7/TS-Gβ5 duplex (human), sequence (O14775 43-395, chain 2 of 2, further chain): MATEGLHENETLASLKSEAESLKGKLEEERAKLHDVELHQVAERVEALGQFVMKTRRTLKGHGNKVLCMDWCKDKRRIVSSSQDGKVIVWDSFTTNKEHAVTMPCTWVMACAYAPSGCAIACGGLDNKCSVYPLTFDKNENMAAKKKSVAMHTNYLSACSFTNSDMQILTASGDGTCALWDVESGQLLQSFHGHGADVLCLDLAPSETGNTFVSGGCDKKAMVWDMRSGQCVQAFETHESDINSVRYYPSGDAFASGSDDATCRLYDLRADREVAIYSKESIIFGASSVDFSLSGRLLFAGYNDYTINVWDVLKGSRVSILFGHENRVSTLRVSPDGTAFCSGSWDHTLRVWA

RGS6/Gβ5 duplex, sequence (P49758 whole entry): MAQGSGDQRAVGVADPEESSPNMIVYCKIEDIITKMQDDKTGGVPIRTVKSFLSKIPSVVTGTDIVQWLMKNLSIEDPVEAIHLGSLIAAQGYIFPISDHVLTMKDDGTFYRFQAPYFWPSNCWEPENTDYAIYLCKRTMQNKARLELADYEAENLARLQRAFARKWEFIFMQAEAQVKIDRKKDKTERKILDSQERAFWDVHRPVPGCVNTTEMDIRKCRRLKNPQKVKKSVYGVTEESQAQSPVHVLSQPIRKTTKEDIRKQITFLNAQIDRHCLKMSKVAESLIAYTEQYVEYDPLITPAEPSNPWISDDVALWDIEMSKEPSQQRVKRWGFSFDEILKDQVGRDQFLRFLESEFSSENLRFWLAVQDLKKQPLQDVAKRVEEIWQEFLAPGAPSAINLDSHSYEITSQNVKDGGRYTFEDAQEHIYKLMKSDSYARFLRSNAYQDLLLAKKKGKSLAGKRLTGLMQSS
RGS6/Gβ5 duplex, sequence (O14775 43-395): as the sequence (O14775 43-395, chain 2 of 2, further chain) above
RGS11/Gβ5 duplex, sequence (O94810 whole entry): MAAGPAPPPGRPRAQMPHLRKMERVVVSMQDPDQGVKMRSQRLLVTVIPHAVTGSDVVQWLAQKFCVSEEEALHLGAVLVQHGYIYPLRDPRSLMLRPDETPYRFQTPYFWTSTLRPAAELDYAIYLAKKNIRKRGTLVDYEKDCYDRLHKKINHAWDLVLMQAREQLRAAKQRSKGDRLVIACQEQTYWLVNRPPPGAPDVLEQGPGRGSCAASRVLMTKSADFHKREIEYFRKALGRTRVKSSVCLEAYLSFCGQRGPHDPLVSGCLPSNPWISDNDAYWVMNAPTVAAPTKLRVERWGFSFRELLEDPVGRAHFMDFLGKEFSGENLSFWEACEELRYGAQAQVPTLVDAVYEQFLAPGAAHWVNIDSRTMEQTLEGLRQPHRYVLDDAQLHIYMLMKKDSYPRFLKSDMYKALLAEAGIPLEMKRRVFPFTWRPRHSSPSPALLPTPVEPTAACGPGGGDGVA
RGS11/Gβ5 duplex, sequence (O14775 43-395): as the sequence (O14775 43-395, chain 2 of 2, further chain) above
RGS9/Gβ5 duplex, sequence (O75916 whole entry): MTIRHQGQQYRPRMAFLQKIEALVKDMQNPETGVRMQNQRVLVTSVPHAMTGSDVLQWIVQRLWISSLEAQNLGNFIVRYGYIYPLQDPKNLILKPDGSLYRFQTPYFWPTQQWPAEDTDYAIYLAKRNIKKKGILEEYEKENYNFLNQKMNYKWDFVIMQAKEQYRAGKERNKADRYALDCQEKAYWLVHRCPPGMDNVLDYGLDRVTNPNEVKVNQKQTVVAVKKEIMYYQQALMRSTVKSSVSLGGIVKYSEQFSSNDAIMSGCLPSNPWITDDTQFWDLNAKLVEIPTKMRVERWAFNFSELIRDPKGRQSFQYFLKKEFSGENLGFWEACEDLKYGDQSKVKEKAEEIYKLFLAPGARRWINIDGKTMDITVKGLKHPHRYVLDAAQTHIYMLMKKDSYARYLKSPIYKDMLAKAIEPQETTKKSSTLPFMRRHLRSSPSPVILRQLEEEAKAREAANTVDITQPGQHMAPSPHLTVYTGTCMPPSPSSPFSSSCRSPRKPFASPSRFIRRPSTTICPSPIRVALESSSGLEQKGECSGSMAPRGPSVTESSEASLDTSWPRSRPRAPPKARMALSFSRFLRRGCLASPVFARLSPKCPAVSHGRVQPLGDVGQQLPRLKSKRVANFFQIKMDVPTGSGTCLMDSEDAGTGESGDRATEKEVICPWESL
RGS9/Gβ5 duplex, sequence (O14775 43-395): as the sequence (O14775 43-395, chain 2 of 2, further chain) above
RGS7/Gβ5 duplex, sequence (P49802 whole entry): as the sequence (P49802 whole entry, chain 1 of 2) above
RGS7/Gβ5 duplex, sequence (O14775 43-395): as the sequence (O14775 43-395, chain 2 of 2, further chain) above

Kd [1] [nM] | percent reduction of the binding of R7BP-FL with the RGS7/Gβ5 duplex [2] [%] | Substance
1.5 |  | RGS11/Gβ5 duplex (from UniProt O94810 1-467; O14775-2 1-353) (complex)
2.3 |  | RGS7/Gβ5 duplex (from UniProt P49802 1-495; O14775-2 1-353) (complex)
3.2 |  | RGS9/Gβ5 duplex (from UniProt O75916 1-674; O14775-2 1-353) (complex)
 | 50 | R7BPΔNC (construct R7BPΔNC-TEV-TS) (from UniProt Q6MZT1 21-223) (domain or fragment)
1.5 |  | RGS6/Gβ5 duplex (from UniProt P49758 1-472; O14775-2 1-353) (complex)
